Measured values: paper PMC10577314 (Frontiers in Cell and Developmental Biology, 2023)
Values belong to the binder of their own block, whether it stands above or below them.

Biological target: T1, C-terminal half of Sec8 (Sec8c, aa544–975) (rat, UniProt Q62824 544-975)
T1 construct: Sec8 (exocyst subunit), Rattus norvegicus, C-terminal half, aa544–975; ends with the ITTV motif; Used in ITC and SEC under the plain name Sec8c; source: E. coli BL21-DE3, purified (Ni-HiTrap HP; Superdex 200)
Assay: ITC; 300 µM SAP102 truncation in the syringe titrated into 30 µM Sec8c (or Sec8c-Δ958–971) in the cell; 20 mM HEPES pH 7.5, 100 mM NaCl, 1 mM DTT; one-set-of-sites model; control titration (protein to buffer) subtracted
Conditions: both partners purified

T1 sequence (Q62824 544-975): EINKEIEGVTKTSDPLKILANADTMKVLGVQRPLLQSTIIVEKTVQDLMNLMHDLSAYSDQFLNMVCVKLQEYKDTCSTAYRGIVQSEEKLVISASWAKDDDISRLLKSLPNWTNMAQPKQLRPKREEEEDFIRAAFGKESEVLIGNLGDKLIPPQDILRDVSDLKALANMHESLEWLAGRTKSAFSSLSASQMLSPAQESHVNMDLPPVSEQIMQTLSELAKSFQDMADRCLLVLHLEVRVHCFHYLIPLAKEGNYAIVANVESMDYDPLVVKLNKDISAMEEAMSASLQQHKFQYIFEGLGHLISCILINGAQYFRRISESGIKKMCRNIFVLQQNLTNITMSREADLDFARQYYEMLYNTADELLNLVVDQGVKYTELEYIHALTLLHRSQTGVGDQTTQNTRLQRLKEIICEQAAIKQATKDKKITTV

Kd: ~4 µM
B1: SAP102 PDZ2 (aa241–331) (domain or fragment, rat, UniProt Q62936 241-331, looked up)
chain: TIMEVNLLKGPKGLGFSIAGGIGNQHIPGDNSIYITKIIEGGAAQKDGRLQIGDRLLAVNNTNLQDVRHEEAVASLKNTSDMVYLKVAKPG
notes: source: E. coli BL21-DE3, purified (Ni-HiTrap HP, SENP2 cleavage, Superdex 200); not shown: His6-SUMO, N-terminal, cleaved

Kd: ~6 µM
B2: SAP102 PDZ1-PDZ2 (aa144–331) (domain or fragment, rat, UniProt Q62936 144-331, looked up)
chain: MFKYEEIVLERGNSGLGFSIAGGIDNPHVPDDPGIFITKIIPGGAAAMDGRLGVNDCVLRVNEVDVSEVVHSRAVEALKEAGPVVRLVVRRRQPPPETIMEVNLLKGPKGLGFSIAGGIGNQHIPGDNSIYITKIIEGGAAQKDGRLQIGDRLLAVNNTNLQDVRHEEAVASLKNTSDMVYLKVAKPG
notes: also called tandem PDZ1-PDZ2; source: E. coli BL21-DE3, purified (Ni-HiTrap HP, SENP2 cleavage, Superdex 200); not shown: His6-SUMO, N-terminal, cleaved
